The values that follow come from paper PMC9555795, “Divergent kinase WNG1 is regulated by phosphorylation of an atypical activation sub-domain” (Biochemical Journal, 2022).

This data set deals with the molecule itself. As to the kind of experiment: SAXS; protein diluted from a 305 uM stock in 20 mM HEPES pH 7.5, 100 mM NaCl; DAMMIN envelope, SASREF P2 tetramer model compared with the crystal hexamer.

B1: BPK1 (residues 61-377) (domain or fragment)
chain: SVYRIPLADMTFWSWMSYLKELPDIDESRNPILKRLLSGSFLRRDGSTTVNVRVPARELVRLLSLTPEQQREGVSAKVRLINLLDPKYSVYEPYLYREILPKRSPLLLPSLGEYRGAFLTYIFHPLSKGLVGDMLETGRSHPDVQVLAANMVAALKSLHNLGLLHRSIELNSFSVLPDGTVVLGGLDTAAPIGTETRLWVGFFGQETAPEIDRNFLADLALTQGRHTVKSDVYSLGVAFRNLVQLLGNGNIGPEDRGAVRQDHLELLDKLSQKMIEEEPGNRPTIEEIMKDPLFEGLNFEDIEEGKARPFRYKQNRL
notes: BPK1, pseudokinase of the WNG family, Toxoplasma gondii, residues 61-377; Cloned in pET28a with the SUMO tag; Purified on Ni-NTA as for WNG1, so a His tag probably went off with the SUMO tag; The species is stated for the WNG family in general, not for BPK1 by name; also called WNG family pseudokinase; source: Rosetta 2 (DE3) cells, purified (Ni-NTA, ULP1 digestion, anion exchange, SEC)
Consider B1, for which the “stoichiometry N” value is 4.

By stoichiometry N is commonly meant the number of molecules, sites or subunits per partner or assembly.
